The term Kd denotes the equilibrium constant for the complex coming apart. Low readings indicate tighter binding, high ones weaker binding.

The results in this text go back to PMC10786891, “Massively parallel profiling of RNA-targeting CRISPR-Cas13d”.

T1: EsCas13d, nuclease-dead (Eubacterium siraeum, UniProt B0MS50, R295A;H300A;R849A;H854A)
T1 sequence: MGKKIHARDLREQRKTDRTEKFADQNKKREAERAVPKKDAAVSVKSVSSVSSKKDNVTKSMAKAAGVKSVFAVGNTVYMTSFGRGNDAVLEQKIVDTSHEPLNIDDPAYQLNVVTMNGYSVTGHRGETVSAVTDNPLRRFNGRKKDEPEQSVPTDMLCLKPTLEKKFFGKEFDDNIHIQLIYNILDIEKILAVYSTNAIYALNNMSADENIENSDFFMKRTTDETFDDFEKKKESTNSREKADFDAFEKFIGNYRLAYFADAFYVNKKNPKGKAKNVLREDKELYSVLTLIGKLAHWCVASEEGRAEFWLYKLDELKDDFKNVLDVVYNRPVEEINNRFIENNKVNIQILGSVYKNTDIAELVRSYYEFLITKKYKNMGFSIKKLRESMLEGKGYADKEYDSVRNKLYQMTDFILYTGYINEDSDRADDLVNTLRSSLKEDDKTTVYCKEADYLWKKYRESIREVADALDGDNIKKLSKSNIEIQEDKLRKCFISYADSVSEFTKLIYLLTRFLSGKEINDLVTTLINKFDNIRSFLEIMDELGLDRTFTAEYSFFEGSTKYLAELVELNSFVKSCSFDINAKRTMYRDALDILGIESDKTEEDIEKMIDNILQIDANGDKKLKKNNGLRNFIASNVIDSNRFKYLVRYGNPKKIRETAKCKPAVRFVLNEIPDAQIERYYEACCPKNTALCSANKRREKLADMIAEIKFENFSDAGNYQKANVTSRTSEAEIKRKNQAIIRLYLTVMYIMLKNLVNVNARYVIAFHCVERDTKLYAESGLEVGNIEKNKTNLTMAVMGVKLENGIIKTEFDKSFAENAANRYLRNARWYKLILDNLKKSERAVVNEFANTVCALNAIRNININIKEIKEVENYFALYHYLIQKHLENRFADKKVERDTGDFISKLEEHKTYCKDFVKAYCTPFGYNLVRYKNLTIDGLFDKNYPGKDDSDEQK

B1: target 1 insG 3' of 4,insA 3' of 4 (mixed)
RNA 1: CACCCGUGCAAAAAUGCAGGGGUCUAAAACUGAGCGGAUAACCUCUCUAUGG
RNA 2: GGGAAUGGAUCCACAUCUACGAAUUCGUACCAUAGAGAGGUUAUCCGCGAUCACCGAGAUCGGAAGAGCACACGU
B2: target 1 insA 3' of 19,insG 3' of 16 (mixed)
RNA 1: CACCCGUGCAAAAAUGCAGGGGUCUAAAACUGAGCGGAUAACCUCUCUAUGG
RNA 2: GGGAAUGGAUCCACAUCUACGAAUUCGUACCAUAAGAGGAGGUUAUCCGCUCACCGAGAUCGGAAGAGCACACGU
B3: target 1 insG 3' of 10,insG 3' of 6 (mixed)
RNA 1: CACCCGUGCAAAAAUGCAGGGGUCUAAAACUGAGCGGAUAACCUCUCUAUGG
RNA 2: GGGAAUGGAUCCACAUCUACGAAUUCGUACCAUAGAGAGGUUGAUCCGGCUCACCGAGAUCGGAAGAGCACACGU
B4: target 1 insG 3' of 6,insA 3' of 3 (mixed)
RNA 1: CACCCGUGCAAAAAUGCAGGGGUCUAAAACUGAGCGGAUAACCUCUCUAUGG
RNA 2: GGGAAUGGAUCCACAUCUACGAAUUCGUACCAUAGAGAGGUUAUCCGGCUACACCGAGAUCGGAAGAGCACACGU
B5: target 1 G5A,G12A (mixed)
RNA 1: CACCCGUGCAAAAAUGCAGGGGUCUAAAACUGAGCGGAUAACCUCUCUAUGG
RNA 2: GGGAAUGGAUCCACAUCUACGAAUUCGUACCAUAGAGAGAUUAUCCACUCACCGAGAUCGGAAGAGCACACGU
B6: target 1 C2U,A16G (mixed)
RNA 1: CACCCGUGCAAAAAUGCAGGGGUCUAAAACUGAGCGGAUAACCUCUCUAUGG
RNA 2: GGGAAUGGAUCCACAUCUACGAAUUCGUACCAUAGGGAGGUUAUCCGCUUACCGAGAUCGGAAGAGCACACGU
B7: target 1 insU 3' of 22,insG 3' of 9 (mixed)
RNA 1: CACCCGUGCAAAAAUGCAGGGGUCUAAAACUGAGCGGAUAACCUCUCUAUGG
RNA 2: GGGAAUGGAUCCACAUCUACGAAUUCGUACUCAUAGAGAGGUUAGUCCGCUCACCGAGAUCGGAAGAGCACACGU
B8: target 1 U10C,G13U (mixed)
RNA 1: CACCCGUGCAAAAAUGCAGGGGUCUAAAACUGAGCGGAUAACCUCUCUAUGG
RNA 2: GGGAAUGGAUCCACAUCUACGAAUUCGUACCAUAGAGAUGUCAUCCGCUCACCGAGAUCGGAAGAGCACACGU
B9: target 1 insA 3' of 22,insG 3' of 7 (mixed)
RNA 1: CACCCGUGCAAAAAUGCAGGGGUCUAAAACUGAGCGGAUAACCUCUCUAUGG
RNA 2: GGGAAUGGAUCCACAUCUACGAAUUCGUACACAUAGAGAGGUUAUCGCGCUCACCGAGAUCGGAAGAGCACACGU
B10: target 1 C6U (mixed)
RNA 1: CACCCGUGCAAAAAUGCAGGGGUCUAAAACUGAGCGGAUAACCUCUCUAUGG
RNA 2: GGGAAUGGAUCCACAUCUACGAAUUCGUACCAUAGAGAGGUUAUCUGCUCACCGAGAUCGGAAGAGCACACGU
B11: target 1 C6A,A18U (mixed)
RNA 1: CACCCGUGCAAAAAUGCAGGGGUCUAAAACUGAGCGGAUAACCUCUCUAUGG
RNA 2: GGGAAUGGAUCCACAUCUACGAAUUCGUACCAUUGAGAGGUUAUCAGCUCACCGAGAUCGGAAGAGCACACGU
B12: target 1 insG 3' of 19,insU 3' of 9 (mixed)
RNA 1: CACCCGUGCAAAAAUGCAGGGGUCUAAAACUGAGCGGAUAACCUCUCUAUGG
RNA 2: GGGAAUGGAUCCACAUCUACGAAUUCGUACCAUGAGAGAGGUUAUUCCGCUCACCGAGAUCGGAAGAGCACACGU
B13: target 1 insU 3' of 13,insG 3' of 8 (mixed)
RNA 1: CACCCGUGCAAAAAUGCAGGGGUCUAAAACUGAGCGGAUAACCUCUCUAUGG
RNA 2: GGGAAUGGAUCCACAUCUACGAAUUCGUACCAUAGAGAGUGUUAUGCCGCUCACCGAGAUCGGAAGAGCACACGU
B14: target 1 A14G,C21A (mixed)
RNA 1: CACCCGUGCAAAAAUGCAGGGGUCUAAAACUGAGCGGAUAACCUCUCUAUGG
RNA 2: GGGAAUGGAUCCACAUCUACGAAUUCGUACAAUAGAGGGGUUAUCCGCUCACCGAGAUCGGAAGAGCACACGU
B15: target 1 G15C,G17C (mixed)
RNA 1: CACCCGUGCAAAAAUGCAGGGGUCUAAAACUGAGCGGAUAACCUCUCUAUGG
RNA 2: GGGAAUGGAUCCACAUCUACGAAUUCGUACCAUACACAGGUUAUCCGCUCACCGAGAUCGGAAGAGCACACGU
B16: target 1 insC 3' of 17,insU 3' of 12 (mixed)
RNA 1: CACCCGUGCAAAAAUGCAGGGGUCUAAAACUGAGCGGAUAACCUCUCUAUGG
RNA 2: GGGAAUGGAUCCACAUCUACGAAUUCGUACCAUAGCAGAGGUUUAUCCGCUCACCGAGAUCGGAAGAGCACACGU
B17: target 1 A1G,C22A (mixed)
RNA 1: CACCCGUGCAAAAAUGCAGGGGUCUAAAACUGAGCGGAUAACCUCUCUAUGG
RNA 2: GGGAAUGGAUCCACAUCUACGAAUUCGUAACAUAGAGAGGUUAUCCGCUCGCCGAGAUCGGAAGAGCACACGU
B18: target 1 insC 3' of 12,insA 3' of 5 (mixed)
RNA 1: CACCCGUGCAAAAAUGCAGGGGUCUAAAACUGAGCGGAUAACCUCUCUAUGG
RNA 2: GGGAAUGGAUCCACAUCUACGAAUUCGUACCAUAGAGAGGCUUAUCCGACUCACCGAGAUCGGAAGAGCACACGU
B19: target 1 U8A,A18U (mixed)
RNA 1: CACCCGUGCAAAAAUGCAGGGGUCUAAAACUGAGCGGAUAACCUCUCUAUGG
RNA 2: GGGAAUGGAUCCACAUCUACGAAUUCGUACCAUUGAGAGGUUAACCGCUCACCGAGAUCGGAAGAGCACACGU
B20: target 1 insA 3' of 6,insG 3' of 4 (mixed)
RNA 1: CACCCGUGCAAAAAUGCAGGGGUCUAAAACUGAGCGGAUAACCUCUCUAUGG
RNA 2: GGGAAUGGAUCCACAUCUACGAAUUCGUACCAUAGAGAGGUUAUCCAGCGUCACCGAGAUCGGAAGAGCACACGU
B21: target 1 insG 3' of 16,insA 3' of 8 (mixed)
RNA 1: CACCCGUGCAAAAAUGCAGGGGUCUAAAACUGAGCGGAUAACCUCUCUAUGG
RNA 2: GGGAAUGGAUCCACAUCUACGAAUUCGUACCAUAGAGGAGGUUAUACCGCUCACCGAGAUCGGAAGAGCACACGU
B22: target 1 insA 3' of 12,insG 3' of 10 (mixed)
RNA 1: CACCCGUGCAAAAAUGCAGGGGUCUAAAACUGAGCGGAUAACCUCUCUAUGG
RNA 2: GGGAAUGGAUCCACAUCUACGAAUUCGUACCAUAGAGAGGAUUGAUCCGCUCACCGAGAUCGGAAGAGCACACGU
B23: target 1 insU 3' of 7,insA 3' of 6 (mixed)
RNA 1: CACCCGUGCAAAAAUGCAGGGGUCUAAAACUGAGCGGAUAACCUCUCUAUGG
RNA 2: GGGAAUGGAUCCACAUCUACGAAUUCGUACCAUAGAGAGGUUAUCUCAGCUCACCGAGAUCGGAAGAGCACACGU
B24: target 1 G15A,G17U (mixed)
RNA 1: CACCCGUGCAAAAAUGCAGGGGUCUAAAACUGAGCGGAUAACCUCUCUAUGG
RNA 2: GGGAAUGGAUCCACAUCUACGAAUUCGUACCAUAUAAAGGUUAUCCGCUCACCGAGAUCGGAAGAGCACACGU
B25: target 1 insU 3' of 17,insA 3' of 7 (mixed)
RNA 1: CACCCGUGCAAAAAUGCAGGGGUCUAAAACUGAGCGGAUAACCUCUCUAUGG
RNA 2: GGGAAUGGAUCCACAUCUACGAAUUCGUACCAUAGUAGAGGUUAUCACGCUCACCGAGAUCGGAAGAGCACACGU
B26: target 1 insG 3' of 7,insU 3' of 5 (mixed)
RNA 1: CACCCGUGCAAAAAUGCAGGGGUCUAAAACUGAGCGGAUAACCUCUCUAUGG
RNA 2: GGGAAUGGAUCCACAUCUACGAAUUCGUACCAUAGAGAGGUUAUCGCGUCUCACCGAGAUCGGAAGAGCACACGU
B27: target 1 del3,del8 (mixed)
RNA 1: CACCCGUGCAAAAAUGCAGGGGUCUAAAACUGAGCGGAUAACCUCUCUAUGG
RNA 2: GGGAAUGGAUCCACAUCUACGAAUUCGUACCAUAGAGAGGUUACCGCCACCGAGAUCGGAAGAGCACACGU

The target of this series is T1, EsCas13d, nuclease-dead. The series is described as follows: crRNA (strand 1, pre-loaded); Mg2+; 40 mM Tris-HCl pH 7.5, 150 mM NaCl, 6 mM MgCl2, 1 mM DTT, 0.1% Tween-20, 0.2 mg/ml BSA; 25 C; 10 min per concentration, then washed. To be noted: tags: His6-TwinStrep-SUMO cleaved; N-terminal SNAP kept (SNAP-Surface 488); label: 3' end held by stalled T7 RNA polymerase.
Regarding B1, binding was put at a Kd of 4.63 ± 0.25 nM.

B2 registered a Kd of 46 ± 6 nM.

The molecule B3 returned a dissociation constant (Kd) of 22.2 ± 1.5 nM.

On to B4, for which the Kd came out at 6.9 ± 0.4 nM.

With B5, binding was characterised by a dissociation constant (Kd) of 10.2 ± 1.5 nM.

As for B6, the affinity, expressed as Kd, was 39.3 ± 2.7 nM.

As to B7, the dissociation constant Kd came to 76 ± 12 nM.

B8 yielded a Kd of 71 ± 18 nM.

Take B9: the equilibrium dissociation constant (Kd) amounted to 8.62 ± 0.35 nM.

In turn, B10 yielded a Kd of 8.5 ± 0.4 nM.

As for B11, binding was characterised by a dissociation constant (Kd) of 26.7 ± 2.1 nM.

B12: binding was put at a Kd of 92 ± 34 nM.

In the case of B13, the Kd is 11.9 ± 1.3 nM.

Consider B14, for which binding was characterised by a dissociation constant (Kd) of 46 ± 12 nM.

As for B15, the equilibrium dissociation constant (Kd) was found to be 50 ± 10 nM.

For B16, the affinity, expressed as Kd, was 42 ± 6 nM.

Take B17: the Kd turned out to be 12 ± 0.7 nM.

As for B18, binding was put at a Kd of 10.4 ± 1.1 nM.

In turn, B19 yielded a Kd of 78 ± 23 nM.

B20 had a dissociation constant Kd of 12.7 ± 0.6 nM.

Consider B21, for which the Kd came out at 22.1 ± 1.8 nM.

Consider B22, for which binding was put at a Kd of 29.2 ± 3.2 nM.

B23 gave a Kd of 23.7 ± 0.8 nM.

B24 displayed a Kd of 73 ± 13 nM.

B25: the Kd is 14.2 ± 1.2 nM.

Molecule B26 returned a Kd of 13.8 ± 1 nM.

With B27, the Kd was 7.05 ± 0.33 nM.
